# Results from patent US20090269779.
# B1: human recombinant pro-MMP-9 (protein)
# chain: APRQRQSTLVLFPGDLRTNLTDRQLAEEYLYRYGYTRVAEMRGESKSLGPALLLLQKQLSLPETGELDSATLKAMRTPRCGVPDLGRFQTFEGDLKWHHHNITYWIQNYSEDLPRAVIDDAFARAFALWSAVTPLTFTRVYSRDADIVIQFGVAEHGDGYPFDGKDGLLAHAFPPGPGIQGDAHFDDDELWSLGKGVVVPTRFGNADGAACHFPFIFEGRSYSACTTDGRSDGLPWCSTTANYDTDDRFGFCPSERLYTQDGNADGKPCQFPFIFQGQSYSACTTDGRSDGYRWCATTANYDRDKLFGFCPTRADSTVMGGNSAGELCVFPFTFLGKEYSTCTSEGRGDGRLWCATTSNFDSDKKWGFCPDQGYSLFLVAAHEFGHALGLDHSSVPEALMYPMYRFTEGPPLHKDDVNGIRHLYGPRPEPEPRPPTTTTPQPTAPPTVCPTGPPTVHPSERPTAGPTGPPSAGPTGPPTAGPSTATTVPLSPVDDACNVNIFDAIAEIGNQLYLFKDGKYWRFSEGRGSRPQGPFLIADKWPALPRKLDSVFEERLSKKLFFFSGRQVWVYTGASVLGPRRLDKLGLGADVAQVTGALRSGRGKMLLFSGRRLWRFDVKAQMVDPRSASEVDRMFPGVPLDTHDVFQYREKAYFCQDRFYWRVSSRSELNQVDQVGYVTYDILQCPED
# B2: activated human recombinant MMP-2 (protein)
# chain: YNFFPRKPKWDKNQITYRIIGYTPDLDPETVDDAFARAFQVWSDVTPLRFSRIHDGEADIMINFGRWEHGDGYPFDGKDGLLAHAFAPGTGVGGDSHFDDDELWTLGEGQVVRVKYGNADGEYCKFPFLFNGKEYNSCTDTGRSDGFLWCSTTYNFEKDGKYGFCPHEALFTMGGNAEGQPCKFPFRFQGTSYDSCTTEGRTDGYRWCGTTEDYDRDKKYGFCPETAMSTVGGNSEGAPCVFPFTFLGNKYESCTSAGRSDGKMWCATTANYDDDRKWGFCPDQGYSLFLVAAHEFGHAMGLEHSQDPGALMAPIYTYTKNFRLSQDDIKGIQELYGASPDIDLGTGPTPTLGPVTPEICKQDIVFDGIAQIRGEIFFFKDRFIWRTVTPRDKPMGPLLVATFWPELPEKIDAVYEAPQEEKAVFFAGNEYWIYSASTLERGYPKPLTSLGLPPDVQRVDAAFNWSKNKKTYIFAGDKFWRYNEVKKKMDPGFPKLIADAWNAIPDNLDAVVDLQGGGHSYFFKGAYYLKLENQSLKSVKFGSIKSDWLGC
# B3: activated human recombinant MMP-9 (protein)
# chain: MRTPRCGVPDLGRFQTFEGDLKWHHHNITYWIQNYSEDLPRAVIDDAFARAFALWSAVTPLTFTRVYSRDADIVIQFGVAEHGDGYPFDGKDGLLAHAFPPGPGIQGDAHFDDDELWSLGKGVVVPTRFGNADGAACHFPFIFEGRSYSACTTDGRSDGLPWCSTTANYDTDDRFGFCPSERLYTQDGNADGKPCQFPFIFQGQSYSACTTDGRSDGYRWCATTANYDRDKLFGFCPTRADSTVMGGNSAGELCVFPFTFLGKEYSTCTSEGRGDGRLWCATTSNFDSDKKWGFCPDQGYSLFLVAAHEFGHALGLDHSSVPEALMYPMYRFTEGPPLHKDDVNGIRHLYGPRPEPEPRPPTTTTPQPTAPPTVCPTGPPTVHPSERPTAGPTGPPSAGPTGPPTAGPSTATTVPLSPVDDACNVNIFDAIAEIGNQLYLFKDGKYWRFSEGRGSRPQGPFLIADKWPALPRKLDSVFEERLSKKLFFFSGRQVWVYTGASVLGPRRLDKLGLGADVAQVTGALRSGRGKMLLFSGRRLWRFDVKAQMVDPRSASEVDRMFPGVPLDTHDVFQYREKAYFCQDRFYWRVSSRSELNQVDQVGYVTYDILQCPED
# B4: human recombinant pro-MMP-2 (protein)
# chain: APSPIIKFPGDVAPKTDKELAVQYLNTFYGCPKESCNLFVLKDTLKKMQKFFGLPQTGDLDQNTIETMRKPRCGNPDVANYNFFPRKPKWDKNQITYRIIGYTPDLDPETVDDAFARAFQVWSDVTPLRFSRIHDGEADIMINFGRWEHGDGYPFDGKDGLLAHAFAPGTGVGGDSHFDDDELWTLGEGQVVRVKYGNADGEYCKFPFLFNGKEYNSCTDTGRSDGFLWCSTTYNFEKDGKYGFCPHEALFTMGGNAEGQPCKFPFRFQGTSYDSCTTEGRTDGYRWCGTTEDYDRDKKYGFCPETAMSTVGGNSEGAPCVFPFTFLGNKYESCTSAGRSDGKMWCATTANYDDDRKWGFCPDQGYSLFLVAAHEFGHAMGLEHSQDPGALMAPIYTYTKNFRLSQDDIKGIQELYGASPDIDLGTGPTPTLGPVTPEICKQDIVFDGIAQIRGEIFFFKDRFIWRTVTPRDKPMGPLLVATFWPELPEKIDAVYEAPQEEKAVFFAGNEYWIYSASTLERGYPKPLTSLGLPPDVQRVDAAFNWSKNKKTYIFAGDKFWRYNEVKKKMDPGFPKLIADAWNAIPDNLDAVVDLQGGGHSYFFKGAYYLKLENQSLKSVKFGSIKSDWLGC
# What was measured:
# [1] = target: human wild type galectin-3, P17931
# [2] = target: galectin-3 A33G and H64P double mutant, P17931
# [3] = target: galectin-3 A33G mutant, P17931
# [4] = target: galectin-3 H64P mutant, P17931
# galectin-3 H64P mutant, P17931, sequence (P17931 whole entry, looked up, stated change not applied): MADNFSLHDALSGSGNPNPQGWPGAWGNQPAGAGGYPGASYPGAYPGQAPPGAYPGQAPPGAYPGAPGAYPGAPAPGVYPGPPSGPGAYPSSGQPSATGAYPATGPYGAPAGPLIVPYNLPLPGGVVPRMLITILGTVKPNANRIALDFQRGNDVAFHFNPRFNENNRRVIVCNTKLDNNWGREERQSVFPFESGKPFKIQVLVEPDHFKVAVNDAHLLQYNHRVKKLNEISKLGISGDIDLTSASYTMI
# human wild type galectin-3, P17931, sequence (P17931 whole entry): as the sequence (P17931 whole entry, looked up, stated change not applied) above
# galectin-3 A33G and H64P double mutant, P17931, sequence (P17931 whole entry, looked up, stated change not applied): as above
# galectin-3 A33G mutant, P17931, sequence (P17931 whole entry A33G): as the sequence (P17931 whole entry, looked up, stated change not applied) above, with A33G counted along it
Protein,cleavage of recombinant galectin-3 (Western blot) [1],cleavage of recombinant galectin-3 (Western blot) [2],cleavage of recombinant galectin-3 (Western blot) [3],cleavage of recombinant galectin-3 (Western blot) [4]
B1,The cleavage products were not seen when galectin-3 was incubated alone or with pro-MMPs,–,–,–
B2,Wild type and A33G galectin-3 produced a polypeptide of ~22 kDa consistent with cleavage at Ala62-Tyr63,Double mutation at A33G and H64P showed complete resistance to cleavage by both MMP-2 and MMP-9,Wild type and A33G galectin-3 produced a polypeptide of ~22 kDa consistent with cleavage at Ala62-Tyr63,The H64P mutant produced a ~27-kDa polypeptide upon incubation with MMP-2 indicating that it is cleaved at Gly32-Ala33
B3,Wild type and A33G galectin-3 produced a polypeptide of ~22 kDa consistent with cleavage at Ala62-Tyr63,Double mutation at A33G and H64P showed complete resistance to cleavage by both MMP-2 and MMP-9,Wild type and A33G galectin-3 produced a polypeptide of ~22 kDa consistent with cleavage at Ala62-Tyr63,MMP-9 did not cleave the H64P mutant
B4,The cleavage products were not seen when galectin-3 was incubated alone or with pro-MMPs,–,–,–
